# Source: patent US20190231821A1 (US Dept. of Health and Human Services, published 2019)
# Biological target: HERV-E peptide … (SEQ ID NO: 1) presented by HLA-A11 on cells (human)
# Assay: cell-based or functional assay
binder,measurement,value
"HLA-A11 restricted HERV-E reactive T cell receptor (TCR α chain SEQ ID NO: 4, TCR β chain SEQ ID NO: 5) (TCR, V domains shown) V domain 1: GIQVEQSPPDLILQEGANSTLRCNFSDSVNNLQWFHQNPWGQLINLFYIPSGTKQNGRLSATTVATERYSLLYISSSQTTDSGVYFCAVRGGADGLTFGKGTHLIIQP V domain 2: DTEVTQTPKHLVMGMTNKKSLKCEQHMGHRAMYWYKQKAKKPPELMFVYSYEKLSINESVPSRFSPECPNSSLLNLHLHALQPEDSALYLCASSPPNEKLFFGSGTQLSVLE",interferon-γ secretion by ELISA (FIG. 8),> 2 fold over background
